Molecular target: HIV-2 GL-AN CA P14C/E45C/W184A/M185A (HIV-2 GL-AN)

Substance “HIV-2 GL-AN CA P14C/E45C/W184A/M185A (natural protein)” has a stoichiometry N of 6.

— article PMC12568027
